Source: paper PMC3135480 (Molecular Biology of the Cell, 2011)

Molecular target: T1, HA-tagged PXL-1 full-length (residues 1-413) (C. elegans, UniProt Q09476 1-413)
T1 sequence (looked up): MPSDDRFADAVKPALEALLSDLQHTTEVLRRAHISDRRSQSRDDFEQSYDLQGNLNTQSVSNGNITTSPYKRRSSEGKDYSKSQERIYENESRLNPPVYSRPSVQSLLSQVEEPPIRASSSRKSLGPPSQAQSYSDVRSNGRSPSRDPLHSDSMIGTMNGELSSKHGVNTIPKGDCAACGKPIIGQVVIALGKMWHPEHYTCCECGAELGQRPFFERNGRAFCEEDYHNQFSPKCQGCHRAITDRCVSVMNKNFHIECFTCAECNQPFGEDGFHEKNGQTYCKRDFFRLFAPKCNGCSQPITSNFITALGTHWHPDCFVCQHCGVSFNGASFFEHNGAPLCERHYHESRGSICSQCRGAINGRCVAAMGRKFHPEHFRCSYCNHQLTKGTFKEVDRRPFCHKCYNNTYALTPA
Assay: pull-down

B1: MBP fusion of UNC-95 full-length (natural protein, C. elegans, UniProt Q9NEZ5 1-350, looked up)
chain: MTISPQPSHQQFESYQWTTESRSSQQRHGTGTPSQDGRLSAIPDPVERHVARWRSESRNSNKDKVFRNDEEFSQQDEIVNGTLTALKNDVEQTTEIIRRKQEQMRMERRQFQTEMEVNGRISIDPTDDWLAARLKAVSSDDMNQQLVKLKQDQRQNAVTDTLAALVYDVNATTEVLRRGQRGRDGEDGNKKKKEEIEYTLRLTPAPEEQIPQRPKIPEDDNMETDDYSRQYGVQMSEETDSLRRRRARSTTPRRTLHISGSPPPPAAAVCAYCSEEIDGAILTALAPNSERAQKFHTYHFMCTYCQKALNMHGTYREHDLKPYCHDCFYKLYNGLQYAPDDHQASIEKLI
  binding result: binds
